This is an account of results in paper PMC10146638 (Viruses, 2023).

No end group written: not given here.

Data set [1] deals with knob domain of the FAdV-4 Fiber2 protein (Fowl aviadenovirus 4, UniProt A0A1B1SKZ0). Description: Surface plasmon resonance assay (Biacore X100, CM5 chip). The class given is binding, fowl adenovirus serotype 4 (FAdV-4). On the technique in general: Surface plasmon resonance follows binding to a sensor surface in real time, without labels.
The test system of a further data set is LMH cells. Conditions: 0-200 μM, 24, 48 and 72 h incubation, vs untreated group.
The target in data set [2] is knob domain of the FAdV-4 Fiber2 protein (amino acids 279–479) (fowl adenovirus serotype 4 (FAdV-4)). In words: crystal structure.
Data set [3] has the same target. Description: SDS-PAGE without boiling.
Data set [4] shares this target. In words: SEC; Superdex200 Increase 10/300 GL; protein eluted at 14.78 mL. Background: SEC sorts molecules by how far they enter the pores of the column.
Data set [5] has the same target. Description: AUC.
The target is the same in data set [6]. In words: SPR.

A word on the Kd: it is the equilibrium constant for the complex coming apart. As usually defined, the stoichiometry N is a count of units in the complex or per binding partner.

In turn, QWKARV [Peptide P14, QWKARV] returned a Kd in data set [1] of 24 µM.

Consider WWHEKE [Peptide P15, WWHEKE], for which the “cytotoxic effect (CCK-8)” value in the data set on LMH cells was “no cytotoxic effect”.

Consider MQKHCG [Peptide P27, MQKHCG], for which the equilibrium dissociation constant (Kd) in data set [1] amounted to 0.572 µM.

Consider QWKIHR [Peptide P6, QWKIHR], for which binding in data set [1] was characterised by a dissociation constant (Kd) of 2.78 µM.

As to QWKKHI [Peptide P1, QWKKHI], binding in data set [1] was put at a Kd of 6.16 µM.

As for MQKHEW [Peptide P25, MQKHEW], the Kd in data set [1] was determined as 1.37 µM.

Take QWKIEK [Peptide P5, QWKIEK]: the Kd in data set [1] came out at 1.2 µM.

Molecule QWKNCK [Peptide P10, QWKNCK] yielded a Kd in data set [1] of 1.02 µM.

For “knob domain of the FAdV-4 Fiber2 protein (amino acids 279–479) (domain or fragment)”, the stoichiometry N in data set [2], in data set [3], in data set [4] and in data set [5] was 3 throughout.

Take MQKKFI [Peptide P30, MQKKFI]: binding in data set [1] was put at a Kd of 0.907 µM.

In data set [6], WWHEKE [peptide number 15 (P15; WWHEKE)] had a Kd of 1.44 µM.

On to MQKHEW [peptide P25], for which the Kd in data set [6] is 1.37 µM.

For the molecule QWKARV [peptide P14], in data set [6], the Kd is 24 µM.

MQKKFI [peptide P30] returned a Kd in data set [6] of 0.907 µM.

As for QWKKHI [peptide P1], the Kd in data set [6] turned out to be 6.16 µM.

In turn, QWKIEK [peptide P5] gave a Kd in data set [6] of 1.2 µM.

The molecule QWKNCK [peptide P10] came in with a Kd in data set [6] of 1.02 µM.

For the molecule QWKIHR [peptide P6], in data set [6], the Kd amounted to 2.78 µM.

Regarding MQKHCG [peptide P27], the Kd in data set [6] worked out at 0.573 µM.
